Where two headings read alike, the source gives them in different places.
Tests used:
Assay in all cases: ITC
[1] = target: T1, CaMN composed of amino acids 1–75 (UniProt P0DP23 2-76)
[2] = target: T2, CaMN composed of amino acids 1–80 (UniProt P0DP23 2-81)
[3] = target: T3, CaMC composed of amino acids 76–148 (UniProt P0DP23 77-149)
[4] = target: T1, CaMN composed of amino acids 1–75; remark: listed apart in the source
[5] = target: T2, CaMN composed of amino acids 1–80; remark: listed apart in the source
[6] = target: T3, CaMC composed of amino acids 76–148; remark: listed apart in the source
wild-type calmodulin = wild-type calmodulin (UniProt P0DP23 1-149)
[7] = target: T1, CaMN composed of amino acids 1–75; remark: listed apart in the source
[8] = target: T2, CaMN composed of amino acids 1–80; remark: listed apart in the source
[9] = target: T3, CaMC composed of amino acids 76–148; remark: listed apart in the source
[10] = target: T1, CaMN composed of amino acids 1–75; remark: listed apart in the source
[11] = target: T2, CaMN composed of amino acids 1–80; remark: listed apart in the source
[12] = target: T3, CaMC composed of amino acids 76–148; remark: listed apart in the source

## Ac-KKFNARRKLKGAILTTMLATRN-NH2 [CaMKII(291–312) peptide]
[1]
  Kd: 280 nM
  dH: 1.9 kcal/mol
[2]
  dH1 (binding mode 1): 3.9 kcal/mol
  dH2 (binding mode 2): 5.7 kcal/mol
[3]
  dH1 (binding mode 1): -3.6 kcal/mol
  dH2 (binding mode 2): 6.8 kcal/mol
[4]
  Kd: 500 nM
  dH: -0.2 kcal/mol
[5]
  dH1 (binding mode 1): -0.3 kcal/mol
  dH2 (binding mode 2): 2.4 kcal/mol
[6]
  dH1 (binding mode 1): -7.7 kcal/mol
  dH2 (binding mode 2): 7.6 kcal/mol
wild-type calmodulin
  Kd: 0.07 pM
  dH: -6.1 kcal/mol
[7]
  Kd: 360 nM
  dH: -2.5 kcal/mol
[8]
  dH1 (binding mode 1): -3.1 kcal/mol
  dH2 (binding mode 2): -3.8 kcal/mol
[9]
  dH1 (binding mode 1): -11.8 kcal/mol
  dH2 (binding mode 2): 5.4 kcal/mol
[10]
  Kd: 710 nM
  dH: -5.1 kcal/mol
[11]
  dH1 (binding mode 1): -6.5 kcal/mol
  dH2 (binding mode 2): -8.5 kcal/mol
[12]
  dH1 (binding mode 1): -15.5 kcal/mol
  dH2 (binding mode 2): 1.7 kcal/mol

Source: article PMC2665295 (Biochemistry, 2008)
